Where two headings read alike, the source gives them in different places.

What is called Km is the substrate concentration at which the rate is half of its maximum.

Data set [1] has as its system recombinant ASMT allozymes. The experiment in a line: ASMT enzyme activity of recombinant allozymes (methylation of sodium arsenite with 14C-SAM). The data set is classed as biochemical, human. The following applies: COS-1 cell homogenate, 2.5 mM sodium arsenite, 10 μM 14C-SAM, corrected for transfection efficiency, mean ± SEM. The text has this: Recombinant ASMT Expression Constructs and Allozyme Expression: ASMT cDNA sequences for the three non-synonymous cSNPs observed during the resequencing experiments were created using the QuickChange Site-Directed Mutagenesis kit (Stratagene, La Jolla, Calif.), with the wild type ASMT cDNA open reading frame (ORF) in the pUni/V5-His-TOPO (pUni) vector (Invitrogen) as template. Specifically, the full-length wild type ORF was amplified using human brain Marathon-Ready cDNA (Clontech) as template. The resultant ASMT cDNA was subcloned into pUni, a vector that is only 2.3 kilobases in length and thus is well suited for performing “circular PCR” during site-directed mutagenesis. Site-directed mutagenesis was performed using internal primers that contained the variant nucleotide sequences. […]
ASMT Enzyme Activity: ASMT activity was measured using the methods of Zakharayan et al. (Chem. Res. Toxicol. 8(8):1029-1038 (1995)). […] The protein concentration of each recombinant protein preparation was determined by the dye-binding method of Bradford (Anal. Biochem. 72:248-254 (1976)) with bovine serum albumin as a standard. “Blank” samples included the same quantity of COS-1 15,000 x g supernatant from cells that were transfected with “empty” p91023(b) expression vector to correct for endogenous activity. […]

The test system of data set [2] is recombinant ASMT allozymes. The experiment in a line: Substrate kinetic studies, apparent Km of recombinant ASMT allozymes. The data set is classed as biochemical, human. The procedure:
Estimating Apparent Km Values: To estimate apparent Km values of ASMT for the sodium arsenite and SAM, a series of sodium arsenite and SAM concentrations were tested with the recombinant allozymes. Blanks for each substrate concentration were included by assaying COS-1 cell cytosol after transfection with empty p91023(b) vector. […] Apparent Km values were calculated using the method of Wilkinson with a computer program written by Cleland. Wilkinson supra; and Cleland supra.
Alterations in amino acid sequence can alter enzyme substrate affinity and/or catalytic efficiency. […] A series of sodium arsenite and SAM concentrations were used to estimate apparent Km values for recombinant wild type ASMT and for the three variant allozymes.

B1: WT: recombinant wild type (reference) human ASMT polypeptide, SEQ ID NO:5, expressed in COS-1 cells (protein, listed as Homo Sapiens)
chain: MAALRDAEIQKDVQTYYGQVLKRSADLQTNGCVTTARPVPKHIREALQNVHEEVALRYYGCGLVIPEHLENCWILDLGSGSGRDCYVLSQLVGEKGHVTGIDMTKGQVEVAEKYLDYHMEKYGFQASNVTFIHGYIEKLGEAGIKNESHDIVVSNCVINLVPDKQQVLQEAYRVLKHGGELYFSDVYTSLELPEEIRTHKVLWGECLGGALYWKELAVLAQKIGFCPPRLVTANLITIQNKELERVIGDCRFVSATFRLFKHSKTGPTKRCQVIYNGGITGHEKELMFDANFTFKEGEIVEVDEETAAILKNSRFAQDFLIRPIGEKLPTSGGCSALELKDIITDPFKLAEESDSMKSRCVPDAAGGCCGTKKSC
With B1, the “Enzyme Activity (% WT)” value in data set [1] came to 100 % WT. Moreover, the Michaelis constant (Km) amounted to 12 ± 6.9 µM in data set [2] (substrate SAM, read-out: SAM Km) and 4.6 µM in data set [2] (substrate sodium arsenite, read-out: Sodium Arsenite Km).

These data come from patent publication US7250290B1, “Arsenic methyltransferase sequence variants” (priority 2003, dated 2007).
